Test results as given in US9402913B2, “Cyclosporine A steroid conjugates” (Allergan, Inc., priority 2013, dated 2016).

Test system: human recombinant carboxylesterases
Experiment: In vitro metabolic stability in human recombinant carboxylesterases (rate of metabolite formation, LC-MS/MS)
Assay type: in vitro ADME
Conditions: 1 μM test compound, 0.1 mg/mL human recombinant carboxylesterase mixture, pH=6.0, 37° C., triplicate
Protocol: In Vitro Metabolic Stability in Human Recombinant Carboxylesterases
Human recombinant carboxylesterases were purchased from a commercial vendor (BD Gentest™, Bedford, Mass.). All metabolic stability experiments were performed in triplicate in 96-well plate format. The final incubation mixture contained 1 μM test compound and 0.1 mg/mL human recombinant carboxylesterase mixture in a final volume of 0.5 mL 0.1M potassium phosphate buffer (pH=6.0). […] Following a pre-incubation at 37° C., test article was added to initiate the reaction. At designated time points (typically 120 minutes to capture the linear range of metabolite formation), 0.05 mL aliquots were removed from the incubation mixtures using a clean pipet tip and immediately placed in organic solvent to stop any esterase activity.
The samples were analyzed by liquid chromatography with mass spectrometry (LC-MS/MS) detection to determine the metabolite concentrations resulting from the metabolism of the hybrid compounds. Internal standards were used to compensate for variability from sample processing, chromatographic elution, mass spectrometer response and ion suppression by matrix components.

| SMILES | Rate of formation Metabolite 2 (Cyclosporine A) [nM/min/mg] | Rate of formation Metabolite 1 (Prednisolone) [nM/min/mg] | Rate of formation Metabolite 1 (Dexamethasone) [nM/min/mg] |
| --- | --- | --- | --- |
| C/C=C/C[C@@H](C)C(OC(=O)OCOC(=O)CCC(=O)OCCOCCOCCOC(=O)CCC(=O)OCC(=O)[C@@]1(O)CCC2C3CCC4=CC(=O)C=C[C@]4(C)C3[C@@H](O)C[C@@]21C)C1C(=O)NC(CC)C(=O)N(C)CC(=O)N(C)[C@@H](CC(C)C)C(=O)NC(C(C)C)C(=O)N(C)C(CC(C)C)C(=O)NC(C)C(=O)NC(C)C(=O)N(C)C(CC(C)C)C(=O)N(C)C(CC(C)C)C(=O)N(C)C(C(C)C)C(=O)N1C (relative stereo) [Compound 5] | 35.6 ± 0.63 | 84.4 ± 7.52 |  |
| C/C=C/C[C@@H](C)[C@@H](OC(=O)OCOC(=O)CCC(=O)OCCOCCOCCOCCOC(=O)CCC(=O)OCC(=O)[C@@]1(O)CCC2C3CCC4=CC(=O)C=C[C@]4(C)C3[C@@H](O)C[C@@]21C)C1C(=O)NC(CC)C(=O)N(C)CC(=O)N(C)[C@@H](CC(C)C)C(=O)NC(C(C)C)C(=O)N(C)C(CC(C)C)C(=O)NC(C)C(=O)NC(C)C(=O)N(C)C(CC(C)C)C(=O)N(C)C(CC(C)C)C(=O)N(C)C(C(C)C)C(=O)N1C (relative stereo) [Compound 6] | 34.4 ± 3.85 |  |  |
| C/C=C/C[C@@H](C)C(OC(=O)CN(C)C(=O)CNC(=O)OCOC(=O)CCC(=O)OCC(=O)[C@@]1(O)CCC2C3CCC4=CC(=O)C=C[C@]4(C)C3[C@@H](O)C[C@@]21C)C1C(=O)NC(CC)C(=O)N(C)CC(=O)N(C)[C@@H](CC(C)C)C(=O)NC(C(C)C)C(=O)N(C)C(CC(C)C)C(=O)NC(C)C(=O)N[C@@H](C)C(=O)N(C)[C@@H](CC(C)C)C(=O)N(C)C(CC(C)C)C(=O)N(C)C(C(C)C)C(=O)N1C (relative stereo) [Compound 7] | 1.31 ± 0.18 | 4.26 ± 1.31 |  |
| C/C=C/C[C@@H](C)[C@@H](OC(=O)OCOC(=O)CCC(=O)OCCOCCOCCOCCOC(=O)CCC(=O)OCC(=O)[C@@]1(O)[C@H](C)CC2C3CCC4=CC(=O)C=C[C@]4(C)[C@@]3(F)[C@@H](O)C[C@@]21C)C1C(=O)NC(CC)C(=O)N(C)CC(=O)N(C)[C@@H](CC(C)C)C(=O)NC(C(C)C)C(=O)N(C)C(CC(C)C)C(=O)NC(C)C(=O)NC(C)C(=O)N(C)C(CC(C)C)C(=O)N(C)C(CC(C)C)C(=O)N(C)C(C(C)C)C(=O)N1C (relative stereo) [Compound 20] | 13.9 ± 1.11 |  | 12.0 ± 0.88 |
| C/C=C/C[C@@H](C)[C@@H](OC(=O)OCOC(=O)CCC(=O)OCCOCCOC(=O)CCC(=O)OCC(=O)[C@@]1(O)CCC2C3CCC4=CC(=O)C=C[C@]4(C)C3[C@@H](O)C[C@@]21C)C1C(=O)NC(CC)C(=O)N(C)CC(=O)N(C)[C@@H](CC(C)C)C(=O)NC(C(C)C)C(=O)N(C)C(CC(C)C)C(=O)NC(C)C(=O)NC(C)C(=O)N(C)C(CC(C)C)C(=O)N(C)C(CC(C)C)C(=O)N(C)C(C(C)C)C(=O)N1C (relative stereo) [Compound 21] | 21.6 ± 0.03 |  |  |
| C/C=C/C[C@@H](C)[C@@H](OC(=O)OCOC(=O)CCC(=O)OCCOCCOCCOCCOCCOC(=O)CCC(=O)OCC(=O)[C@@]1(O)CCC2C3CCC4=CC(=O)C=C[C@]4(C)C3[C@@H](O)C[C@@]21C)C1C(=O)NC(CC)C(=O)N(C)CC(=O)N(C)[C@@H](CC(C)C)C(=O)NC(C(C)C)C(=O)N(C)C(CC(C)C)C(=O)NC(C)C(=O)NC(C)C(=O)N(C)C(CC(C)C)C(=O)N(C)C(CC(C)C)C(=O)N(C)C(C(C)C)C(=O)N1C (relative stereo) [Compound 22] | 46.5 ± 3.16 | 38.4 ± 3.32 |  |
| C/C=C/C[C@@H](C)[C@@H](OC(=O)OCOC(=O)CCC(=O)OCCOCCOCCOC(=O)CCC(=O)OCC(=O)[C@@]1(O)[C@H](C)CC2C3CCC4=CC(=O)C=C[C@]4(C)[C@@]3(F)[C@@H](O)C[C@@]21C)C1C(=O)NC(CC)C(=O)N(C)CC(=O)N(C)[C@@H](CC(C)C)C(=O)NC(C(C)C)C(=O)N(C)C(CC(C)C)C(=O)NC(C)C(=O)NC(C)C(=O)N(C)C(CC(C)C)C(=O)N(C)C(CC(C)C)C(=O)N(C)C(C(C)C)C(=O)N1C (relative stereo) [Compound 32] | 13.4 ± 1.31 |  | 20.4 ± 3.18 |
